From patent US20260146071A1, “CCR2 INHIBITORS AND METHODS OF USE” (ORION BIOTECHNOLOGY USA Corp., priority 2022, published 2026)
Where no end group is shown, it is not given here.

Target: T1, CCR2 (Homo sapiens, UniProt P41597)
T1 construct: endogenous in cells; host or cells: THP-1
T1 sequence (P41597 1-360 isoform P41597-2): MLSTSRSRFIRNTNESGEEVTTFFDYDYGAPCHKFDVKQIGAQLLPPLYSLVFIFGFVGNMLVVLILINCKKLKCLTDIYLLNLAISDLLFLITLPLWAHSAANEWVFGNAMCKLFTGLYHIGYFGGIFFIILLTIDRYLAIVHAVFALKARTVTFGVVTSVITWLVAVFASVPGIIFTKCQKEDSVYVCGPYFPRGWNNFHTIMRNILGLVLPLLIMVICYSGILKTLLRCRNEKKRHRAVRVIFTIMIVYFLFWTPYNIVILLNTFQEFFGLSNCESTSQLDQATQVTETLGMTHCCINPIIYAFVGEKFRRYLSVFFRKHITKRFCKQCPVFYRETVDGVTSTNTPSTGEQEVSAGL
Assay: CCR2 inhibitory potency assay, calcium flux method, THP-1 cells stimulated with 100 nM CCL2
Assay type: cell-based
Conditions: Table 3; CCR2 inhibition; read-out: mean IC50
Procedure: CCR2 inhibitory potency assay was determined using the calcium flux method.
Ca^2+ flux measurements were performed using an FDSS micro-cell device ([…]). On the day of the experiment, THP-1 cells were seeded 20000 cells/well) to wells of black-walled clear-bottom 384-well plates.
THP-1 cells were loaded with a calcium-sensitive fluorescent dye (Screen Quest™ Fluo-8 No Wash Calcium Assay Kit, AAT Bioquest) according to the manufacturer's instructions, then a first addition of either test sample dilutions or vehicle alone were added. 5 minutes later, cells were stimulated with 100 nM CCL2.

How did the IC50 turn out when “CCL2 variant, N-terminal ISWFTFNAPVT (SEQ ID NO: 22), human CCL2 Met64Nle core [CCL2-M64Nle-1P13]” was run?
Its IC50 is 31.2 nM.

How did the IC50 turn out when “CCL2 variant, N-terminal IYGVGWNAPVT (SEQ ID NO: 14), human CCL2 Met64Nle core [CCL2-M64Nle-1P14]” was run?
Its IC50 is 9.99 nM.

With “CCL2 variant, N-terminal MYGLGWNAPVT (SEQ ID NO: 23), human CCL2 Met64Nle core [CCL2-M64Nle-1P19]” as the substance, how does the IC50 read?
Its IC50 is 32.4 nM.

“CCL2 variant, N-terminal RPYLWKAPVT (SEQ ID NO: 12), human CCL2 Met64Nle core [CCL2-M64Nle-2P5]” was tested. Which IC50 did it give?
Its IC50 is 5.83 nM.

Which IC50 does the source give for “CCL2 variant, N-terminal SPSYTRAPVT (SEQ ID NO: 31), human CCL2 Met64Nle core [CCL2-M64Nle-2P7]” here?
Its IC50 is 50.2 nM.

“CCL2 variant, N-terminal TPGH(Nle)KAPVT (SEQ ID NO: 37), human CCL2 Met64Nle core [CCL2-M64Nle-2P4]” was tested. Which IC50 did it give?
Its IC50 is 183 nM.

For “CCL2 variant, N-terminal TPGHYRAPVT (SEQ ID NO: 39), human CCL2 Met64Nle core [CCL2-M64Nle-2P3]”, which IC50 is on record?
Its IC50 is 225 nM.

With “CCL2 variant, N-terminal TPGYLKAPVT (SEQ ID NO: 19), human CCL2 Met64Nle core [CCL2-M64Nle-NGS-MEO-5]” as the substance, how does the IC50 read?
The IC50 was 18.4 nM.

With “CCL2 variant, N-terminal VPDWSQAPVT (SEQ ID NO: 18), human CCL2 Met64Nle core [CCL2-M64Nle-1P22]” as the substance, how does the IC50 read?
The IC50 was 15.3 nM.

With “CCL2 variant, N-terminal VTNPTWAPVT (SEQ ID NO: 20), human CCL2 Met64Nle core [CCL2-M64Nle-1P02-F1V]” as the substance, how does the IC50 read?
The IC50 was 24.6 nM.

How did the IC50 turn out when “CCL2 variant, N-terminal WRPHWSAPVT (SEQ ID NO: 25), human CCL2 Met64Nle core [CCL2-M64Nle-1P3]” was run?
Its IC50 is 32.8 nM.

Which IC50 does the source give for “CCL2 variant, N-terminal WVLSSLNAPVT (SEQ ID NO: 17), human CCL2 Met64Nle core [CCL2-M64Nle-1P5]” here?
The IC50 was 14.2 nM.

For “CCL2 variant, N-terminal WYTVGWNAPVT (SEQ ID NO: 21), human CCL2 Met64Nle core [CCL2-M64Nle-1P16]”, which IC50 is on record?
Its IC50 is 26.7 nM.

For “CCL2-M64Nle-NGS-MESR-1 (SYSWVR; also: part of CCL2 M64Nle construct, placement of chain in protein not given here)”, which IC50 is on record?
Its IC50 is 155 nM.

“CCL2-M64Nle-NGS-MESR-5 (AWGGIR; also: part of CCL2 M64Nle construct, placement of chain in protein not given here)” was tested. Which IC50 did it give?
Its IC50 is 41.5 nM.

Same assay, conditions: Table 4; CCR2 inhibition; read-out: mean IC50

Which IC50 does the source give for “CCL2 variant, N-terminal FTNPTWRPST (SEQ ID NO: 80), human CCL2 11-76 Met64Nle core (not fully specified (C-terminus); also: followed C-terminally by human CCL2 11-76 core with Met64Nle) [3P5-CCL2]” here?
The IC50 was 2.86 nM.

“CCL2 variant, N-terminal FTNPTWSGVT (SEQ ID NO: 81), human CCL2 11-76 Met64Nle core (not fully specified (C-terminus); also: followed C-terminally by human CCL2 11-76 core with Met64Nle) [3P6-CCL2]” was tested. Which IC50 did it give?
Its IC50 is 1.27 nM.

How did the IC50 turn out when “CCL2 variant, N-terminal FTNPTWSQGV (SEQ ID NO: 94), human CCL2 11-76 Met64Nle core (not fully specified (C-terminus); also: followed C-terminally by human CCL2 11-76 core with Met64Nle) [3P19-CCL2]” was run?
Its IC50 is 0.914 nM.
